This passage reports Kd, kon and 中和效价 (病毒中和试验, IFA) results from patent publication CN107973850A.

Assay [1] addresses CHO细胞表达的CSFV石门株E2蛋白 (classical swine fever virus, Shimen strain).
Assay [2] has as its target CSFV感染细胞的E2蛋白 (CSFV石门株病毒的E2蛋白) (classical swine fever virus, Shimen strain). The assay can be described thus: cell-based or functional assay.

B1: 重组猪瘟病毒E2蛋白猪源化单克隆抗体rHQ06 Sw (antibody, V domains shown)
VH: QVQLQQSGGGLVQPKGSLKLSCAASGFTFNNNAMDWVRQAPGKGLEWVARIRTKSNYYATSYADSVKDRFTISRDDSQSMLYLQMNNLKTEDTAIYFCVREGYYAWFAYWGQGTLVTVSA
VL: DIVLTQTPSSLAVSIGEKVTMSCKSSQSLLYSRNQKNYLAWYQQKPGQFPKLLIYWASTRESGVPDRFTGSGSGTDFTLTISSVKAEDLAVYYCQQYYSYPYTFGGGTKLEIKR
By Kd is commonly meant the equilibrium constant for the complex coming apart. The term kon denotes a measure of how fast the partners come together. In the case of B1, in assay [1], the Kd was determined as 13.1 nM and the kon was 98400 M⁻¹ s⁻¹. Further, in assay [2], the 中和效价 (病毒中和试验, IFA) came out at 12.
